From patent US20050192282A1, “Chemokine inhibiting piperazine derivatives and their use to treat multiple myeloma” (Schering Aktiengesellschaft, priority 2004, published 2005)
“Also recorded” adds a separate entry of the source.

T1: Human CCR1 (Homo sapiens, UniProt P32246)
T1 sequence (P32246 1-355): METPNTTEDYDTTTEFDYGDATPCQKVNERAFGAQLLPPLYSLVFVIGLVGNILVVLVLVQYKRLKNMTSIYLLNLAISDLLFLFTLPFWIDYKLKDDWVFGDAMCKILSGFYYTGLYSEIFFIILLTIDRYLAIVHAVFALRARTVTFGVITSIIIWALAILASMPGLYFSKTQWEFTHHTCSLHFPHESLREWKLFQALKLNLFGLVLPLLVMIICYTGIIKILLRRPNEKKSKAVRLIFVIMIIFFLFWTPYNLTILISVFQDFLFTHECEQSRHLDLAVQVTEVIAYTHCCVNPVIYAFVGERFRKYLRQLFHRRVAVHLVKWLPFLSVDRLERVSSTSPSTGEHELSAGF

B1: MIP-1β: human chemokine binding CCR1 with low affinity (protein, UniProt P13236 24-92, looked up)
C-C motif chemokine 4: APMGSDPPTACCFSYTARKLPRNFVVDYYETSSLCSQPAVVFQTKRSKQVCADPSESWVQEYVYDLELN
B2: MIP-1α: human CC chemokine, ligand for CCR1 and CCR5; recombinant form used as stimulus (protein, UniProt P10147 24-92, looked up)
C-C motif chemokine 3: SLAADTPTACCFSYTSRQIPQNFIADYFETSSQCSKPGVIFLTKRSRQVCADPSEEWVQKYVSDLELSA

Key:
Human CCR1 = molecular target: T1, Human CCR1; conditions: cited from earlier work
[1] = system: β1 integrin mRNA expression in MM.1S human Myeloma cells; experiment: RT-PCR analysis of β1 integrin mRNA expression in MM.1S myeloma cells cocultured with ST2 stromal cells; type: cell-based; conditions: MM.1S cocultured with ST2; treated with 1 ng/ml of rhMIP-1a, 12 hours

Molecule	ability to signal through human CCR1 (Human CCR1)	β1 integrin mRNA expression levels [1]
MCP-1: human chemokine binding CCR1 with low affinity	neither ligand is able to signal	
B1	neither ligand is able to signal	
B2		significantly increased; also recorded: significantly enhanced
